The values below come from US20220396617A1.

The target of this test is human TIGIT expressed on HEK293A cells (human) (UniProt Q495A1). Description: cell-based or functional assay.
human TIGIT expressed on HEK293A cells (human), sequence (Q495A1 22-244 limits assumed): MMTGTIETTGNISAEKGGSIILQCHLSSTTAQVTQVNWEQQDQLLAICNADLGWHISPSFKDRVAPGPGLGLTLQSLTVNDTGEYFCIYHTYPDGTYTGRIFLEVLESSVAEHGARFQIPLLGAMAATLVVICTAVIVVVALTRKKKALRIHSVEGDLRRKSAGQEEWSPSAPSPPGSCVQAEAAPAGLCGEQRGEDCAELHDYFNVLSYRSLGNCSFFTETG

B1: Etigilimab (antibody, INN chains, looked up, human IgG1, V domains shown)
VH: QVQLQESGPGLVKPSETLSLTCAVSGYSITSDYAWNWIRQPPGKGLEWIGYISYSGSTSYNPSLRSRVTISRDTSKNQFFLKLSSVTAADTAVYYCARRQVGLGFAYWGQGTLVTVSS
VL: DIQMTQSPSSLSASVGDRVTITCKASQDVSTAVAWYQQKPGKAPKLLIYSASYRYTGVPSRFSGSGSGTDFTFTISSLQPEDIATYYCQQHYSTPWTFGQGTKVEIK
With B1, the NK92-mediated ADCC against HEK293A/human TIGIT cells, EC50 is 0.0236 nM.
